The values that follow come from patent US11300567B2, “Methods and compositions for protein purification and enzyme reaction” (THE REGENTS OF THE UNIVERSITY OF CALIFORNIA, priority 2015, dated 2022).

Type in all cases: biochemical
Data set [1] in a line: Michaelis-Menton initial rates experiments, batch vs VFD (Table 1). The following applies: Batch (non-VFD). As for the experimental part:
In determining if the observed acceleration is due to a kinetic or thermodynamic effect, the initial rates of each reaction were explored. All five enzymes were subjected typical kinetic experiments using the Michaelis-Menton model. The intrinsic values of the enzymes in a batch type and VFD system could be ascertained (Table 1).
To a 17.7 mm internal diameter VFD tube was added the substrate and enzyme in buffer at the appropriate concentration. The VFD tube was rotated about its axis at a specific rotational speed at an inclination angle of 45-degrees. After a set amount of time had elapsed, the rotation was immediately halted and the quenching reagent added. The exact same reaction was run alongside the VFD in mimicking a non-VFD process. From both the VFD processed and non-VFD processed sample an aliquot of 0.100 mL was removed and added to a 96 well plate and read at 405 nm to detect the production of p-nitrophenoxide. These measurements were carried out in triplicate and allow an accurate comparison to be drawn between VFD and non-VFD processing. For all alterations to this general protocol, assay and further experimental design, see supporting information.

The nature of data set [2]: Alkaline phosphatase VFD acceleration, crowding and centrifuge control (Example 4). As for the experimental part:
The enzyme-substrate solution (alkaline phosphatase and p-nitrophenol phosphate) was subjected to centrifugation in a bench top centrifuge at the indicated rotational speeds for 10 min. A direct comparison was then made between a VFD sample and a centrifuged sample (FIG. 12).
FAsTAP™ thermosensitive alkaline phosphatase (1.0 μL, 0.11 mM) was added to 10 mL of the diethanolamine buffer to generate an enzyme stock solution (11.1 nM). This solution was made fresh every two hours and stored on ice. Each sample was prepared by combining 0.800 mL of the enzyme stock solution and 0.500 mL of alkaline phosphatase liquid substrate system (pNPP, Sigma-Aldrich, 0.435 mM); this solution (1.3 mL) was added to either an Eppendorf or VFD sample tube. The reaction was incubated at 25° C. for 10 min unless otherwise indicated. […] The sample (100 μL) was then transferred to a 96-well micro plate reader, and the absorbance measured at 402 nm (λmax). […]
To explore the ability of VFD-mediated processing to overcome steric crowding reagents, two PEG polymers with average MW of 3350 and 8000 g/mol were added to the alkaline phosphatase-substrate solutions as follows. The appropriate quantities of PEG reagent for the indicated final concentrations were dissolved in diethanolamine buffer (total volume of 10.0 mL). […] The absorbance of the solution was then measured at 402 nm (FIG. 23).

Data set [3] can be described thus: Immobilized alkaline phosphatase reactor: continuous flow stability. To be noted: amine-glutaraldehyde cross linker, 10 h, 1 mL min^−1. As for the experimental part: FIG. 64 depicts amine-glutaraldehyde cross-linker immobilization. Glutaraldehyde solution (90 μL in 3.00 mL PBS) was added to a freshly coated sample tube. The sample tube was then capped, and inserted into a VFD. The sample tube was rotated at 8 krpm for 30 min to create the APTES-glutaraldehyde cross linker. After rotation, the sample tube was then rinsed with PBS (6×5 mL) and inverted to remove the majority of the buffer solution. The enzyme immobilization step was then carried out as described above. Following this, the sample tube was removed from the VFD and washed with PBS (5×5 mL, pH 8.0), and inverted to remove the majority of the buffer solution. The sample tube was then loaded back into the VFD before addition of NaBH3CN (18.8 mg) in sodium acetate buffer (50 mM, pH 5.0, 3.00 mL). The sample tube was then capped and rotated at 8 krpm for 30 min. […]
The p-nitrophenol phosphate substrate solution (0.01 M in 1.0 M diethanolamine) was prepared as follows: […] of diethanolamine was added to 1.0 L of H2O, then the pH of the solution was adjusted to pH 9.8 using 5 M HCl. […] The aliquot was then analyzed via absorption spectroscopy as described above. […]

A short description of data set [4]: Alkaline phosphatase VFD vs batch enhancement, incl. steric crowding (Example 1). The following applies: VFD 10 minutes. As for the experimental part:
In a typical experiment, fast thermosensitive alkaline phosphatase (1 μL, 1 unit, Thermo-Fisher) was added to 10 mL of diethanolamine buffer (1.0 M diethanolamine buffer with 0.50 mM magnesium chloride at pH 9.8 at 25° C.) in creating an enzyme stock solution. This solution was stored on ice and not stored for more than two hours. p-nitrophenyl phosphate liquid substrate solution (500 μL, Sigma-Aldrich) was added to a 20 mm external diameter VFD tube. To this was added alkaline phosphatase enzyme solution (800 μL) and the tube was inserted into the VFD and immediately spun to the required rotational speed. The VFD tube was rotated about its axis for 10 minutes at a 45-degree tilt angle relative to the horizontal position. At the end of this time 4 M NaOH (150 μL) was added in quenching the reaction. The sample was then added to a 96-well reader plate and the absorbance read at 401 nm (being the λmax for this system with 150 μL NaOH quench). […] From a comparison of the absorption values of the VFD vs. batch an enhancement factor can be determined (FIGS. 3A-3N).
For the steric crowding studies the following method was performed. […] The sample was then added to a 96-well reader plate and the absorbance read at 401 nm (being the λmax for this system with 150 μL NaOH quench). […] From a comparison of the absorption values of the VFD vs. batch an enhancement factor can be determined (FIGS. 3A-3N).

What is called Km is the substrate concentration at which the rate is half of its maximum.

Entries after “also recorded” stand apart in the source; their conditions may differ.

For alkaline phosphatase, in data set [1], the Km turned out to be 484 µM, the “Vmax (Mol/sec) Batch” value turned out to be 2.271e-08 mol/s and the “kcat (sec^−1) Batch” value is 1 s⁻¹. Also, the “enhancement of VFD-processed enzyme in high concentration of PEG 8000” value in data set [2] (PEG 8000 (6.00 mg/ml, 0.75 M)) is given as “≈ 9 fold”. In addition, the “effect of centrifugation on enzymatic activity (control)” value in data set [2] (centrifuged at 14 krpm (17530 g), no VFD) is listed as “no increase in enzymatic activity”. Further, the “stability of immobilized enzyme in continuous flow” value in data set [3] was “stable levels of substrate conversion for 10 h; also recorded: good stability over 10 h of processing”. In data set [4] (6 mg/mL PEG8000 dopant, 45-degree tilt), the “enhancement compared to a non-VFD sample, crowded solution” value is listed as about 12 ×. In data set [4] (45-degree tilt angle), the “enhancement in activity compared to a non-VFD sample” value is on record as about 6 ×.
